According to US20220204613A1 (D 10 THERAPEUTICS, published 2022):

Target: T1, human CD47 protein (human, UniProt Q08722 19-139, limits assumed)
T1 construct: also called human CD47 antigen
Experiment: SPR Biacore, supernatant antibody Fc-captured, human CD47 analyte 5 nM
Experimental: Production and affinity ranking of humanized antibodies. The designed plasmids of heavy chain and light chain were sent for 3 mL transfection following GenScript's SOP. For affinity ranking, Antibodies were captured on the sensor chip through Fc capture method. Human CD47 protein was used as the analyte. The surface was regenerated before the injection of another antibody. The process was repeated until all antibodies were analyzed. The off-rates of antibodies were obtained from fitting the experimental data locally to 1:1 interaction model using the Biacore® T200/8K evaluation software. The antibodies were ranked by their dissociation rate constants (off-rates, kd).

T1 sequence (Q08722 19-139 limits assumed): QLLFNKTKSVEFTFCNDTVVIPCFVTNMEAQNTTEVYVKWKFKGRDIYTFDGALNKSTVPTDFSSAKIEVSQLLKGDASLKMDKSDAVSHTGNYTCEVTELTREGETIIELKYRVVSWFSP

Binder | Kd [nM] | koff [s⁻¹] | kon [M⁻¹ s⁻¹]
VH2+VL2 (antibody, human IgG4 S228P, kappa, V domains shown, Humanized IgG, hIgG4 CH (S228P) and human kappa CL; leader residues 1-19 of each entry left out; Tested from supernatant; also called U0959FD090-VH2 + U0959FD090-VL2) VH: QVQLVQSGAEVKKPGASVKVSCKASGYTFTSSVIHWVRQAPGQGLEWLGYINPYSDGTKFNEKCKIRATMTSDTSISTAYMELSRLRSDDTAVYYCARGLIGTRYDSWFAYWGQGTLVTVSS VL: DIQMTQSPSSLSASVGDRVTITCRTSQDINNYLNWYQQKPGKAVKLLIYYTSRLHSGVPSRFSGSGSGTDFTFTISSLQPEDIATYFCQQGNTLPYTFGGGTKVEIKR | 0.698 | 0.00413 | 5.92e+06
VH3+VL1 (antibody, human IgG4 S228P, kappa, V domains shown, Humanized IgG, hIgG4 CH (S228P) and human kappa CL; leader residues 1-19 of each entry left out; Tested from supernatant; also called U0959FD090-VH3 + U0959FD090-VL1) VH: QVQLVQSGAEVKKPGASVKVSCKASGYTFTSSVIHWVKQAPGQGLEWLGYINPYSDGTKFNEKCKIRVTLTSDTSISTAYMELSRLRSDDTAVYYCARGLIGTRYDSWFAYWGQGTLVTVSS VL: DIQMTQSPSSLSASVGDRVTITCRTSQDINNYLNWYQQKPGKAPKLLIYYTSRLHSGVPSRFSGSGSGTDFTFTISSLQPEDIATYYCQQGNTLPYTFGGGTKVEIKR | 0.803 | 0.00553 | 6.89e+06
VH2+VL4 (antibody, human IgG4 S228P, kappa, V domains shown, Humanized IgG, hIgG4 CH (S228P) and human kappa CL; leader residues 1-19 of each entry left out; Tested from supernatant; also called U0959FD090-VH2 + U0959FD090-VL4) VH: QVQLVQSGAEVKKPGASVKVSCKASGYTFTSSVIHWVRQAPGQGLEWLGYINPYSDGTKFNEKCKIRATMTSDTSISTAYMELSRLRSDDTAVYYCARGLIGTRYDSWFAYWGQGTLVTVSS VL: DIQMTQSPSSLSASVGDRVTISCRTSQDINNYLNWYQQKPGKTVKLLIYYTSRLHSGVPSRFSGSGSGTDYTFTISSLQPEDIATYFCQQGNTLPYTFGGGTKVEIKR | 0.585 | 0.00332 | 5.67e+06
VH4+VL1 (antibody, human IgG4 S228P, kappa, V domains shown, Humanized IgG, hIgG4 CH (S228P) and human kappa CL; leader residues 1-19 of each entry left out; Tested from supernatant; also called U0959FD090-VH4 + U0959FD090-VL1) VH: QVQLVQSGAEVKKPGASVKVSCKASGYTFTSSVIHWVKQAPGQGLEWLGYINPYSDGTKFNEKCKIRATMTSDKSISTAYMELSRLRSDDTAVYYCARGLIGTRYDSWFAYWGQGTLVTVSS VL: DIQMTQSPSSLSASVGDRVTITCRTSQDINNYLNWYQQKPGKAPKLLIYYTSRLHSGVPSRFSGSGSGTDFTFTISSLQPEDIATYYCQQGNTLPYTFGGGTKVEIKR | 0.839 | 0.005 | 5.96e+06
VH1+VL3 (antibody, human IgG4 S228P, kappa, V domains shown, Humanized IgG, hIgG4 CH (S228P) and human kappa CL; leader residues 1-19 of each entry left out; Tested from supernatant; also called U0959FD090-VH1 + U0959FD090-VL3) VH: QVQLVQSGAEVKKPGASVKVSCKASGYTFTSSVIHWVRQAPGQGLEWMGYINPYSDGTKFNEKCKIRVTMTRDTSISTAYMELSRLRSDDTAVYYCARGLIGTRYDSWFAYWGQGTLVTVSS VL: DIQMTQSPSSLSASVGDRVTITCRTSQDINNYLNWYQQKPGKAVKLLIYYTSRLHSGVPSRFSGSGSGTDYTFTISSLQPEDIATYFCQQGNTLPYTFGGGTKVEIKR | 0.274 | 0.00137 | 5e+06

Further binders by falling Kd, results first:

Kd [nM] | koff [s⁻¹] | kon [M⁻¹ s⁻¹] | Binder
0.772 | 0.00335 | 4.34e+06 | VH4+VL2 (antibody, human IgG4 S228P, kappa, V domains shown, Humanized IgG, hIgG4 CH (S228P) and human kappa CL; leader residues 1-19 of each entry left out; Tested from supernatant; also called U0959FD090-VH4 + U0959FD090-VL2) VH: QVQLVQSGAEVKKPGASVKVSCKASGYTFTSSVIHWVKQAPGQGLEWLGYINPYSDGTKFNEKCKIRATMTSDKSISTAYMELSRLRSDDTAVYYCARGLIGTRYDSWFAYWGQGTLVTVSS VL: DIQMTQSPSSLSASVGDRVTITCRTSQDINNYLNWYQQKPGKAVKLLIYYTSRLHSGVPSRFSGSGSGTDFTFTISSLQPEDIATYFCQQGNTLPYTFGGGTKVEIKR
0.555 | 0.00305 | 5.49e+06 | VH3+VL4 (antibody, human IgG4 S228P, kappa, V domains shown, Humanized IgG, hIgG4 CH (S228P) and human kappa CL; leader residues 1-19 of each entry left out; Tested from supernatant; also called U0959FD090-VH3 + U0959FD090-VL4) VH: QVQLVQSGAEVKKPGASVKVSCKASGYTFTSSVIHWVKQAPGQGLEWLGYINPYSDGTKFNEKCKIRVTLTSDTSISTAYMELSRLRSDDTAVYYCARGLIGTRYDSWFAYWGQGTLVTVSS VL: DIQMTQSPSSLSASVGDRVTISCRTSQDINNYLNWYQQKPGKTVKLLIYYTSRLHSGVPSRFSGSGSGTDYTFTISSLQPEDIATYFCQQGNTLPYTFGGGTKVEIKR
0.553 | 0.00278 | 5.02e+06 | VH4+VL4 (antibody, human IgG4 S228P, kappa, V domains shown, Humanized IgG, hIgG4 CH (S228P) and human kappa CL; leader residues 1-19 of each entry left out; Tested from supernatant; also called U0959FD090-VH4 + U0959FD090-VL4) VH: QVQLVQSGAEVKKPGASVKVSCKASGYTFTSSVIHWVKQAPGQGLEWLGYINPYSDGTKFNEKCKIRATMTSDKSISTAYMELSRLRSDDTAVYYCARGLIGTRYDSWFAYWGQGTLVTVSS VL: DIQMTQSPSSLSASVGDRVTISCRTSQDINNYLNWYQQKPGKTVKLLIYYTSRLHSGVPSRFSGSGSGTDYTFTISSLQPEDIATYFCQQGNTLPYTFGGGTKVEIKR
0.412 | 0.0021 | 5.1e+06 | VH1+VL1 (antibody, human IgG4 S228P, kappa, V domains shown, Humanized IgG, hIgG4 CH (S228P) and human kappa CL; Tested from supernatant; also called U0959FD090-VH1 + U0959FD090-VL1) VH: QVQLVQSGAEVKKPGASVKVSCKASGYTFTSSVIHWVRQAPGQGLEWMGYINPYSDGTKFNEKCKIRVTMTRDTSISTAYMELSRLRSDDTAVYYCARGLIGTRYDSWFAYWGQGTLVTVSS VL: DIQMTQSPSSLSASVGDRVTITCRTSQDINNYLNWYQQKPGKAPKLLIYYTSRLHSGVPSRFSGSGSGTDFTFTISSLQPEDIATYYCQQGNTLPYTFGGGTKVEIKR
